The text below walks through data of patent US20260116991A1 (HAINAN SIMCERE ZAIMING PHARMACEUTICAL, published 2026).

For assay [1], the target named is T1, polypeptide GC3pep of human GPC3 (Ala524-Lys563) (human).
T1 construct: Residues Ala524-Lys563 of human GPC3 (NCBI NM_004484.3); coated on the ELISA plate; also called membrane proximal polypeptide GC3pep
T1 peptide: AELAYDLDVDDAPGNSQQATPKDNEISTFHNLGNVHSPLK
Nature of the assay: ELISA, coated peptide. On the technique in general: In an ELISA, binding on a coated surface is turned into a signal by an enzyme label.

Assay [2] addresses T2, polypeptide GC3pep (human).
T2 construct: also called membrane proximal polypeptide GC3pep
T2 peptide: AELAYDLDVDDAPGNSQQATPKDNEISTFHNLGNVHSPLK
The assay is described as follows: ELISA, GC3pep coated, antibody 1 nM.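 Note: bound antibody detected with an HRP-conjugated secondary antibody and TMB substrate, reaction stopped with HCl, after 2 h binding at 37 °C.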

The target in assay [3] is T2, polypeptide GC3pep. Nature of the assay: ELISA, GC3pep coated, antibody 10 nM.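 Note: antibody bound to the coated peptide for 2 h at 37 °C, detected through an HRP-conjugated secondary antibody with TMB colour development stopped by acid.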
Assay [4] has as its target T2, polypeptide GC3pep. Nature of the assay: ELISA, GC3pep coated, antibody 0.1 nM.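 Note: antibody allowed to bind the coated plate 2 h at 37 °C, then detected via HRP-conjugated secondary antibody and TMB development for 10 min, stopped with HCl.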
In assay [5] the target is T2, polypeptide GC3pep. The assay is described as follows: ELISA, GC3pep coated, antibody 100 nM.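 Note: detection with an HRP-conjugated secondary antibody and TMB substrate, color reaction stopped with HCl before absorbance reading.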
Assay [6] has as its target T2, polypeptide GC3pep. The assay is described as follows: ELISA, GC3pep coated, antibody 0.01 nM.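 Note: bound antibody detected with an HRP-conjugated secondary antibody and TMB substrate, color reaction stopped with HCl before reading absorbance.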
Assay [7] deals with T2, polypeptide GC3pep. The assay is described as follows: ELISA, GC3pep coated, antibody 0.001 nM.
The target of assay [8] is T2, polypeptide GC3pep. The assay is described as follows: ELISA, GC3pep coated, antibody 0.0001 nM.
The target in assay [9] is T3, murine GPC3-His protein (murine, UniProt Q8CFZ4 25-558, limits assumed).
T3 construct: bought protein; also called murine GPC3 protein
Nature of the assay: SPR, antibody captured on Protein A chip, murine GPC3-His injected. (In general: Surface plasmon resonance follows binding to a sensor surface in real time, without labels.)

Assay [10] has as its target T4, murine GPC3-His protein (Sino Biological, Cat. No. 50989-M08B) (murine, UniProt Q8CFZ4 25-558).
T4 construct: Bought protein; also called murine GPC3 protein; mouse GPC3-his protein; not shown: His tag
Nature of the assay: ELISA, coated antigen.

T4 sequence (Q8CFZ4 25-558 limits assumed): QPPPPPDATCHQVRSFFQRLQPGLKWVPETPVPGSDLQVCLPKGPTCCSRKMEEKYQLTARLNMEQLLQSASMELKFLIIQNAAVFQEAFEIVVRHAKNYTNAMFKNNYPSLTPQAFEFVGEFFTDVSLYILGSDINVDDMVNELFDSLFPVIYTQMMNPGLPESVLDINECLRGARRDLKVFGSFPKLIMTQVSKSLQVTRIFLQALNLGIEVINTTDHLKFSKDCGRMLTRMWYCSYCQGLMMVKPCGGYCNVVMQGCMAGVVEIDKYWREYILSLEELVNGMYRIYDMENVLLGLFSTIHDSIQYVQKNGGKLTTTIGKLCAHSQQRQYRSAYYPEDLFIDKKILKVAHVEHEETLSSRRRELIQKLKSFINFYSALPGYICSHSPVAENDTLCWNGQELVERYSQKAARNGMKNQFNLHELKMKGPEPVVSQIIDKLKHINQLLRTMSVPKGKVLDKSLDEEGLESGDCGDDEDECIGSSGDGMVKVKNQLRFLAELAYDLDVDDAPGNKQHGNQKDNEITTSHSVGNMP
T3 sequence (Q8CFZ4 25-558 limits assumed): as above

B1: F4.18.4 human-murine chimeric antibody (antibody, human IgG1, kappa, V domains shown)
VH: QVQLHQSGAEMAKPGASVNLSCKTSGFTFTDYGISWVKQRTRQGLEWIGDIYPRHINIYYNEKFKDKATLTADRSSSTAYMELRSMTSEDSAVYFCARRGTTGRGALDYWGQGTSLTVSS
VL: DILLTQSPAILSVSPGERVSFSCRASQSIGTSIHWYQQRTNGSPRLLIKYAFESISGIPSRFGGSGSRTDFTLTINSVESEDIADYYCQQTYNWPYTFGGGTKLEIKR
notes: Chimeric
In the case of B1, in [1], the binding result is on record as “no binding (tested: 100 nM)”.

B2: F1.2.14 (antibody, human IgG1, kappa, V domains shown)
VH: RVQLQQSGAELVKPGASVRMSCKASGYTFTAYSIEWMKQNLGKSLEWIGNFRPYNDDTKYNENFKGRATLTVEKSSATVYLELSRLTSDDSAVYYCARSGPTDYFDYWGQGTTLIVSS
VL: DIQMTQSPASLSASVGETVTITCRASDNIYSYLAWYQQKQGQSPQLLVYNAKTLAEGVPSRFSGSGSVTQFSLKIISLQPEDFGTYYCQHHFGTPRTFGGGTKLEIKR
notes: human-murine chimeric antibody
For B2, the OD450 nm in assay [2], in assay [3], in assay [4], in assay [5], in assay [6] and in [7] was 0.05 OD450 nm in each case. Also, the OD450 nm in [8] turned out to be 0.05 OD450 nm. Moreover, the equilibrium dissociation constant (Kd) (commonly a measure of binding affinity in units of concentration) in assay [9] is 0.844 nM. Also, in assay [9], the koff (as a rule, the rate constant with which the complex falls apart) is 0.000147 s⁻¹. The kon (as a rule, the second-order rate constant of association) in [9] was determined as 174000 M⁻¹ s⁻¹.

B3: F1.145.22 human-murine chimeric antibody (antibody, human IgG1, kappa, V domains shown)
VH: QVQLQQSGTDLARPGASVKLSCKASGYTFTSFGISWVKQRTGQGLEWIGEIYPRSGSPYYNEKFTGKATLTADKSSSTAYMELRSLTSEDSAVYFCAKDFGSSYVFDYWGQGTALTVSS
VL: DIQMTQSPASLSASVGETVTITCRASENIYSYLTWYQQKQGKSPQLLVYNAKTLAEGVPSRFSGSGSGTQFSLKINSLQPEDFGTYYCQHHYGTPPTFGTGTKLDLKR
notes: Chimeric
Regarding B3, the binding result in assay [1] is on record as “no binding (tested: 100 nM)”.

B4: F1.3.9 human-murine chimeric antibody (antibody, human IgG1, kappa, V domains shown)
VH: QVQLQQPGTELVKPGASVKLSCKASGYTFTSYWIHWVKQRPGQGLEWIGNINPPNAGTNYNEKFKSKATLTVDKSSSTAYMQLSSLTSEDSAVYYCARGRWLLHDYWGQGTTLTVSS
VL: DIQMTQSPASLSISVGETVTITCRASENIYSNLAWYQQKQGKSPQLLVYGTKNLAEGVPSRFSGSGSGTQYSLKINSLQSEDFGNYYCQHFWGTPYTFGGGTKLEILR
notes: Chimeric
For B4, the binding result in [1] is reported as “no binding (tested: 100 nM)”.

B5: F4.13.7 human-murine chimeric antibody (antibody, human IgG1, kappa, V domains shown)
VH: QVQLQQPGAELVKPGASVKLSCKASGYTFTNNWVHWVKQRPGQGLEWTGMIHPDSGSTIYNEKFQSKATLTVDKSSSTAYMQLSSLTSEDSAVYYCARGYYDSSSYYAMDYWGQGTSVTVSS
VL: NIQMTQTTSSLSASLGDRVTISCSASQGIFNYLNWYQQKPDGTVKLLIYYTSSLHSGVPSRFSGSGSGTDYSLTISNLEPEDIATYYCQQYSKLPWTFGGGTKLEIKR
notes: Chimeric
For the molecule B5, the binding result in [1] is “no binding (tested: 100 nM)”.

B6: F1.136.7 human-murine chimeric antibody (antibody, human IgG1, kappa, V domains shown)
VH: EVQLQQSGPVMVKPGPSVKISCQTSGFTFTDYYIHWVKQSHGKSLEWIGLVFPYDGGTNYNQKFKDKATLTLDTSSSTAYMELNSLTSEDSAVYYCARAGGFSYALNYWGQGTSVTVSS
VL: DIQMTQSPSSLSASLGGKVTITCKASQDINNYIAWYQHKPGKGPRLLIHFTSTLQPGIPSRFSGSGSGRDYSFSISNLEPEDIATYYCLQYDNLLLTFGAGTKLELKR
notes: Chimeric
For the molecule B6, the binding result in assay [1] is “no binding (tested: 100 nM)”.

B7: F1.21.8 (antibody, human IgG1, kappa, V domains shown)
VH: EVQLQQSGPELVKPGASVKISCKTSGFLFTGHYMHWVKSSHGNILDWIGYIYPYNAISFYNQKFKGKATLTVDKSSNTAYMELRSLTSEDSAVYYCARGDYGNYVTAYWGQGTLVTVSA
VL: DVLMTQTPLSLPVSLGDQASISCRSSQSIVHSSGNTYLEWYLQKPGQSPKLLIYKVSNRFSGVPDRFSGSGSGTDFTLKISRVEAEDLGVYYCFQGSHLPWTFGGGTKLDIKR
notes: as for B2
In the case of B7, the OD450 nm in assay [2], in assay [3], in assay [4], in assay [5], in assay [6] and in assay [7] was 0.05 OD450 nm throughout. For the same molecule, the OD450 nm in assay [8] was 0.05 OD450 nm. The molecule further gave a Kd in assay [9] of 0.0771 nM. This molecule also displayed a koff in assay [9] of 4.84e-05 s⁻¹. The molecule further registered a kon in assay [9] of 628000 M⁻¹ s⁻¹.

B8: F1.115.8 human-murine chimeric antibody (antibody, human IgG1, kappa, V domains shown)
VH: EVQLQQSGPELVKPGASVKMSCKASGYTFTEYYMHWVKQSHGKSLEWIGYIYPNNGGNGYNQKFKGKATLTVDKSSSTAYMGLRSLTSEDSAVYYCVRGYYSNWYFDVWGTGTTVTVSS
VL: DVLMTQTPLSLPVSLGDQASISCRSSQSIVHSNGKTYLEWYLQKPGQSPKLLIYKVSNRFSGVPDRFSGSGSGTDFTLKISRVEAEDLGVYYCFQGSHVPFTFGSGTKLEIKR
notes: Chimeric
On to B8, for which the binding result in assay [1] is “no binding (tested: 100 nM)”.

B9: F4.21.16 human-murine chimeric antibody (antibody, human IgG1, kappa, V domains shown)
VH: DVQLQESGPGLVKPSQSLSLTCSVTGYSITSGYYWNWIRQFPGNKLEWMGYISYDVTVNYNPSLKNRISITRDTSKNQFFLKLNSVTTEDTATYYCATITSVASMDHWGQGTSVTVSS
VL: DILMTQTPLSLPVSLGDQASISCRSSQNIVHRNGNTYLEWYLQKPGQSPKLLLYKVSNRFSGVPDRFSGSGSGTDFTLKISRVEAEDLGIYYCFQGSHFPFTFGSGTKLEIKR
notes: Chimeric
Regarding B9, the binding result in [10] and in assay [1] was “no binding (tested: 100 nM)” throughout.

B10: F1.9.19 human-murine chimeric antibody (antibody, human IgG1, kappa, V domains shown)
VH: DVQLQESGPGLVKPSQSLSLTCSVTGYSITSGYYWNWIRQFPGNRLEWMAYISYDGINNYNPSLKNRISIARDTSTNQFFLKLNSVTSEDTATYYCATTTEVALFDHWGQGTTLTVSS
VL: DVLLTQTPLSLPVSLGDQASISCRSSQNIVHGNGNTYLEWFLQKPGQSPKLLIYKVSNRFSGVPDRFSGSGSGTDFTLKISRVEAEDLGLYYCFQASHVPWTFGGGTKLEIKR
notes: Chimeric
In the case of B10, the binding result in [10] and in [1] was “no binding (tested: 100 nM)” in each case.

B11: F1.62.9 human-murine chimeric antibody (antibody, human IgG1, kappa, V domains shown)
VH: QVQLQQSDAELVKPGASVKISCKVSGYIFTDHTIHWMKQRPEQGLEWIGYIYPRDGSIKYNENFKGKATLTADKSSSATYMQLNSLTSEDSAVYFCARPIYYDYAYYFDYWGQGTTLTVSS
VL: DVVMTQSPLSLPVSLGDQASISCRSRQSLVHSNGNTYLHWYLQKPGQSPKVLIYKVSNRFSGVPDRFSGSGSGTDFTLKISRVEAEDLGVYFCSQSTHVPYTFGGGTKLEIKR
notes: Chimeric
With B11, in assay [1], the binding result is given as “no binding (tested: 100 nM)”.

B12: F4.26.1 human-murine chimeric antibody (antibody, human IgG1, kappa, V domains shown)
VH: QVQLKQSGPGLVQPSQSLSITCTVSGFSLTSYGVHWVRQSPGKGLEWLGVIWSSGNTDYNAVLISRLSIKKDDSKSQVFFKMNSPQVDDSAIYYCGRNGGWLLRGFMDFWGQGTSVTVSS
VL: DVVMTQTPLSLPVSLGDQASISCRSSQSLLHSNGNTYLHWYLQRSGQSPNLLIYKVSNRFSGVPDRFSGGGSGTDFTLKISRVEAEDLGIYFCSQSTHVPWTFGGGTKLEIKR
notes: Chimeric
With B12, the binding result in assay [1] is “no binding (tested: 100 nM)”.

B13: F1.153.1 human-murine chimeric antibody (antibody, human IgG1, kappa, V domains shown)
VH: QIQLVQSGPELKKPGETVKISCKASGYTFTTAGMQWVQKMPGKGFKWIGWINTHSGEPQYAEDFKGRFAFSLETSASTAYLQISNLKNEDTATYFCARSFYYHGSSFFYFDYWGQGTTLTVSS
VL: DIVMTQSQKFMSTTVGDRVSITCKASQNVGTAVAWYQQKPGQSPKLLIYSASNRYTGVPDRFTGSGSGADFTLTISNMQSEDLADYFCQQYSRYPLTFGAGTKLELKR
notes: Chimeric
On to B13, for which the binding result in assay [10] and in assay [1] was “no binding (tested: 100 nM)” each time.

B14: F1.41.17 human-murine chimeric antibody (antibody, human IgG1, kappa, V domains shown)
VH: EVQLVESGGDSVKPGGSLKLSCAASGFTFSSYGMSWVRQTPDKRLEWVATINSGGSYTYYQDSVKGRFTISRDNAKNTLYLQMSSLKSEDTAIYYCVRHHYGSSYDYFDYWGQGTTLTVSS
VL: DIVMTQAAPSVPVMPGESVSISCRSSKSLLHSNGNTHLYWFLQRPGQSPQLLIYRMSNLASGVPDRFSGSGSGTAFTLRISRVEAEDVGVYYCMQHLEYPLTFGAGTKLELKR
notes: Chimeric
For B14, the binding result in assay [10] and in assay [1] was “no binding (tested: 100 nM)” each time.

B15: F1.118.4 human-murine chimeric antibody (antibody, human IgG1, kappa, V domains shown)
VH: QVQLQQSGAELAKPGASVKLSCKASGYSFTSYWIHWVKQRPGQGLEWIGYINPSSGYTKYNQKFKDKATLTADKSSSTAYMQLSSLTYEDSAVYYCARFGSSSFYFDYWGQGTTLTVSS
VL: DIVLTQSPASLAVSLGQRATISCRASQSVSSSSYSYMHWYQQKPGQPPKLLIKYASNLDSGVPARFSGSGSGTDFTLNIHPVEEEDTATYYCQHSWEIPAFGGGTKLEIKR
notes: Chimeric
As for B15, the binding result in assay [10] and in [1] was “no binding (tested: 100 nM)” each time.
